In patent US20250179205A1 (Hoffmann-La Roche, published 2025):

How the values were obtained:
human CD40 [1] = target: T1, human CD40 (human, UniProt P25942 21-277); assay: cell-based or functional assay
human CD40 [2] = target: T1, human CD40; assay: cell-based or functional assay; remark: listed apart in the source
human CD40 [3] = target: T1, human CD40; assay: cell-based or functional assay; remark: listed apart in the source
human CD40 [4] = target: T1, human CD40; assay: flow cytometry, Raji cells, Alexa488 anti-huIgG
Description: CD40 positive cells (Raji cells) were detached from the culture bottle using Trypsin and were counted using a Casy cell counter. After pelleting at 4° C., the cells were resuspended in FACS Buffer (2.5% FCS in PBS), adjusted to 2.0E+06 cells/mL, and dispensed to 96-well PP V-bottom-plates (25 μL/well=5.0E+04Zellen/well).
The CD40 specific antibodies were adjusted to 20 μg/mL in FACS buffer, resulting in a final concentration of 10 μg/mL. […] were added to 25 μl cell suspension and incubated for 1 h at 4° C. The cells were then washed twice in FACS buffer. After washing, the cells were resuspended in 50 μL FACS-buffer containing secondary antibody (<huIgG>-Alexa488, c=10 μg/mL) and incubated 1 h at 4° C. The cells were then washed twice in FACS buffer and resuspended in 70 μl/well FACS buffer for measurement using a FACS Canto (BD, Pharmingen).

human CD40 [5] = target: T1, human CD40; assay: flow cytometry, Daudi cells, PE anti-human Fc F(ab')2
Description: (§1) The binding to cell surface CD40 was tested using Daudi cells, a human B lymphoblast cell line with high expression levels of human CD40 (ATCC CCL-213). Daudi cells were cultured with 1× Dulbecco's Modified Eagle's Medium (DMEM) (Gibco, Cat. No. 42430-025) supplemented with 10% Fetal Bovine Serum (FBS) (life technologies, Cat. No. 16140, Lot No. 1797306A). 0.3×10⁵ Daudi cells were added in 200 μl of 1×DMEM with 10% FBS to each well of a round-bottom 96-well plate (Greiner Bio-One, CELLSTAR®, Cat. No. 650185). Plates were centrifuged 5 minutes at 1700 rpm and supernatants were flicked off. Cells were washed once with 200 μL of 4° C. cold FACS buffer (eBioscience, Cat. No. 00-4222-26). All samples were resuspended in 50 μL/well of 4° C. cold FACS buffer containing the bispecific antigen binding molecules (primary antibody) or isotype control antibody DP47 at the indicated range of concentrations (in duplicates) and incubated for 120 minutes at 4° C. Afterwards the cells were washed three times with 200 μL 4° C. cold FACS buffer. Cells were further stained with 25 μL/well of 4° C. cold secondary antibody solution (1:50 dilution of secondary antibody) containing R-Phycoerythrin (PE) conjugated AffiniPure F(ab′)₂ Fragment Goat Anti-Human IgG, Fcγ Fragment Specific (Jackson ImmunoResearch, Cat. No. 109-116-098) and incubated for 60 minutes at 4° C. in the dark. Cells were washed with 200 μl FACS buffer and resuspended in 85 μL/well FACS-buffer containing 0.2 μg/mL DAPI (Roche, Cat. No. 10236276001) and acquired the same day using a 5-laser LSR-Fortessa (BD Bioscience with DIVA software). Data analysis was performed using the FlowJo version 10 software (FlowJo LLC).

[6] = target: T2, Human CD40 extracellular domain with C-terminal His-AviTag (human); assay: SPR (Biacore), antibody captured by anti-human F(ab')2, CD40 ECD as analyte, 1:1 model
T2 construct: analyte in solution in the SPR assays; also called recombinant human CD40_ECD
T2 sequence (chain, as listed by the source limits assumed): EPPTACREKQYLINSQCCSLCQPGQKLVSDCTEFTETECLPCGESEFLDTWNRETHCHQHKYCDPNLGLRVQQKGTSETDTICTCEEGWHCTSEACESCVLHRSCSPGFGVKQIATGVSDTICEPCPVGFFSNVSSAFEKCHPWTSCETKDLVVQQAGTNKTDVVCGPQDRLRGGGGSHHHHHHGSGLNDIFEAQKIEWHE
Description: Around 12000 resonance units (RU) of the capturing system (10 μg/ml goat anti human F(ab)′₂; Order Code: 28958325; GE Healthcare Bio-Sciences AB, Sweden) were coupled on a CM5 chip (GE Healthcare BR-1005-30) at pH 5.0 by using an amine coupling kit supplied by the GE Healthcare. The sample and system buffer was PBS-T (10 mM phosphate buffered saline including 0.05% Tween20) pH 7.4. The flow cell was set to 25° C.—and the sample block set to 12° C.—and primed with running buffer twice. The antibody was captured by injecting a 50 nM solution for 30 sec at a flow of 5 μl/min. Association was measured by injection of human CD40 extra cellular domain or cynomolgus monkey CD40 extracellular domain in various concentrations in solution for 300 sec at a flow of 30 μl/min starting with 300 nM in 1:3 dilutions. The dissociation phase was monitored for up to 1200 sec and triggered by switching from the sample solution to running buffer. The surface was regenerated by 60 sec washing with a Glycine pH 2.1 solution at a flow rate of 30 μl/min. Bulk refractive index differences were corrected by subtracting the response obtained from a goat anti human F(ab′)₂ surface. Blank injections are also subtracted (=double referencing). For calculation of apparent KD and other kinetic parameters the Langmuir 1:1 model was used. The apparent Kd was calculated using the BIACORE® B4000 evaluation software (version 1.1).

[7] = target: T3, mouse fibroblast activation protein (mFAP) (mouse, UniProt P97321 1-761); assay: flow cytometry on NIH/3T3-mFAP cells (3T3_mFAP), PE-labelled anti-human IgG Fcgamma F(ab')2 secondary, MFI baseline corrected
T3 construct: expressed on transfected NIH/3T3-mFAP clone 26 cells; also called murine FAP; mouse FAP
T3 sequence (P97321 whole entry): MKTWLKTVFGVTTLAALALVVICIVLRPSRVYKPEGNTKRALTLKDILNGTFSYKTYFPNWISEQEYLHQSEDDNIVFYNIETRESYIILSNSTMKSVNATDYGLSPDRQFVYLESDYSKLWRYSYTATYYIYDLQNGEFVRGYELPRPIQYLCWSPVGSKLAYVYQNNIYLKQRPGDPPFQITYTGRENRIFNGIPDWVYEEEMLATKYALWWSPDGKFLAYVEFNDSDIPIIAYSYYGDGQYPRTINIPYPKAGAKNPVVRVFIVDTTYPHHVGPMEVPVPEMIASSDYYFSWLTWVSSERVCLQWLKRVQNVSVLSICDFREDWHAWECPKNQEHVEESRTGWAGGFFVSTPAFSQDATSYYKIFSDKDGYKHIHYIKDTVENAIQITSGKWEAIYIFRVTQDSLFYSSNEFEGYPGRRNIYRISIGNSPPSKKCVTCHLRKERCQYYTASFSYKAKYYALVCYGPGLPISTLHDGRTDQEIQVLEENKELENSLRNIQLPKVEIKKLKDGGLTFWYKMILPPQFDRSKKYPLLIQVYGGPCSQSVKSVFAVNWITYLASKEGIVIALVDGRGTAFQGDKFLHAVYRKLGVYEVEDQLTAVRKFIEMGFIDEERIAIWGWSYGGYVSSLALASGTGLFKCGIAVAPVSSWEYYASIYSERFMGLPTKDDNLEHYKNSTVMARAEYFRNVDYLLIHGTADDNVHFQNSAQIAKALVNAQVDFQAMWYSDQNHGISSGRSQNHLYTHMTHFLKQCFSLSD
Description: (§2) NIH/3T3-huFAP clone 19 and NIH/3T3-mFAP clone 26 were generated by the transfection of the mouse embryonic fibroblast NIH/3T3 cell line (ATCC CRL-1658) with the expression vector pETR4921 to express under 1.5 μg/mL Puromycin selection huFAP or mFAP, respectively.
as §1, with “NIH/3T3-huFAP, NIH/3T3-mFAP or NIH/3T3-wt” for “The binding to cell surface CD40 was tested using Daudi cells, a human B lymphoblast cell line with high expression levels of human CD40 (ATCC CCL-213). Daudi”, “1797306A). For the NIH/3T3-huFAP and NIH/3T3-mFAP cells 1.5 μg/mL Puromycin (Gibco, Cat. No. A11138-03) was added to the medium for selection of FAP-expressing cells. NIH/3T3 cells were removed from the plate by using enzyme-free Cell Dissociation Buffer (Gibco, Cat. No. 13151014).” for “1797306A).”, “NIH/3T3-huFAP clone 19, NIH/3T3-mFAP clone 26 or NIH/3T3-wt” for “Daudi cells”, “1×DMEM” for “1×DMEM with”, “using” for “using a”

[8] = target: T4, His-tagged human dimeric FAP (recombinant FAP_ECD) (human, UniProt Q12884 27-760); assay: method not stated; SPR as in Example 5.3.2 presumed
T4 construct: also called hu FAP ectodomain + poly-lys-tag + his6-tag

[9] = target: T5, human fibroblast activation protein (huFAP) (human, UniProt Q12884 1-760); assay: flow cytometry, NIH/3T3-huFAP clone 19 cells, PE anti-human Fc F(ab')2
T5 construct: expressed on transfected NIH/3T3-huFAP clone 19 cells; also called human FAP
Description: as §2
as §1, with “NIH/3T3-huFAP, NIH/3T3-mFAP or NIH/3T3-wt” for “The binding to cell surface CD40 was tested using Daudi cells, a human B lymphoblast cell line with high expression levels of human CD40 (ATCC CCL-213). Daudi”, “1797306A). For the NIH/3T3-huFAP and NIH/3T3-mFAP cells 1.5 μg/mL Puromycin (Gibco, Cat. No. A11138-03) was added to the medium for selection of FAP-expressing cells. NIH/3T3 cells were removed from the plate by using enzyme-free Cell Dissociation Buffer (Gibco, Cat. No. 13151014).” for “1797306A).”, “NIH/3T3-huFAP clone 19, NIH/3T3-mFAP clone 26 or NIH/3T3-wt” for “Daudi cells”, “1×DMEM” for “1×DMEM with”, “using” for “using a”

[10] = target: T4, His-tagged human dimeric FAP …; assay: SPR (Biacore T200), His-tagged dimeric huFAP ECD captured by anti-His, antibody as analyte, 1:1 fit (avidity)
Description: The capacity of the bispecific constructs to bind human FAP was assessed by surface plasmon resonance (SPR). All SPR experiments were performed on a BIACORE® T200 (BIACORE®) at 25° C. with HBS-EP as running buffer (0.01 M HEPES pH 7.4, 0.15 M NaCl, 3 mM EDTA, 0.005% Surfactant P20, (BIACORE®).
His-tagged human dimeric FAP (recombinant FAP_ECD) was captured on a CM5 chip (GE Healthcare) immobilized with anti-His antibody (Qiagen Cat. No. 34660) by injection of 500 nM huFAP for 60 s at a flow rate of 10 uL/min, 10 nM murine FAP for 20 s at a flow rate of 20 uL/min and 10 nM cynoFAP for 20 s at a flow rate of 20 uL/min. Immobilization levels for the anti-His antibody of up to 18000 resonance units (RU) were used. Following the capture step, the bispecific antibodies as well as control molecules were immediately passed over the chip surface at a concentration ranging from 0.78-100 nM with a flow rate of […] for 280 s and a dissociation phase of 180 s. Bulk refractive index differences were corrected for by subtracting the response obtained in a reference flow cell, where no FAP was immobilized. Avidity was determined using the Langmuir 1:1 curve fitting. For bivalent binding the same 1:1 fitting was used leading to an apparent KD value.

T1 sequence (P25942 21-277 limits assumed): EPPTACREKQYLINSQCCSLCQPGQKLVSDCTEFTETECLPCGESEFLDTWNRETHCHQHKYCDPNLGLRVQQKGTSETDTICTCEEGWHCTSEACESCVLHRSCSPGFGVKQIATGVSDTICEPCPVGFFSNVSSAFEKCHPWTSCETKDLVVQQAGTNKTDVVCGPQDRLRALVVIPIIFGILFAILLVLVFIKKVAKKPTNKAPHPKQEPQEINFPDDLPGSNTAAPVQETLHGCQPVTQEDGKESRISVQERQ

| EC50, activation of human Daudi cells (CD70 expression) with FAP-coated Dynabeads (human CD40 [1]) [nM] | EC50, activation of human B cells with FAP-coated Dynabeads, increase of CD86 expression (human CD40 [2]) [nM] | EC50, activation of HEK-Blue CD40L cells (SEAP) with murine FAP-coated Dynabeads (human CD40 [3]) [nM] | EC50 (human CD40 [4]) [mg/L] | EC50 (human CD40 [5]) [nM] | Kd [6] [nM] | koff [6] [s⁻¹] | kon [6] [M⁻¹ s⁻¹] | binding result [7] | Kd [8] [nM] | EC50 [9] [nM] | Kd [10] [nM] | koff [10] [s⁻¹] | kon [10] [M⁻¹ s⁻¹] | EC50 (read off the curve) [7] [nM] | Binder |
| --- | --- | --- | --- | --- | --- | --- | --- | --- | --- | --- | --- | --- | --- | --- | --- |
| 0.756 | 0.072 | 0.125 | 0.09 | 0.104 | 4.6 | 0.00781 | 1.69e+06 | no binding (tested: 500 nM) | – | – | – | – | – | – | P1AD4470 CD40 IgG (antibody, V domains shown, bivalent anti-human CD40 IgG1; cross-linked with anti-human Fc F(ab')2 in the functional assays; also called CD40 IgG1 PGLALA; CD40 IgG1) VH: EVQLVESGGGLVQPGGSLRLSCAASGYSFTGYYIHWVRQAPGKGLEWVARVIPNAGGTSYNQKFKGRFTLSVDNSKNTAYLQMNSLRAEDTAVYYCAREGIYWWGQGTLVTVSS VL: DIQMTQSPSSLSASVGDRVTITCRSSQSLVHSNGNTFLHWYQQKPGKAPKLLIYTVSNRFSGVPSRFSGSGSGTDFTLTISSLQPEDFATYFCSQTTHVPWTFGQGTKVEIKR |
| – | – | – | – | – | – | – | – | – | 1.5 | 7.99 | 6 | 0.00174 | 291000 | ~8 | P1AE0408 CD40 × FAP (28H1) (2 + 1) head to tail (bispecific antibody, human IgG1, kappa, L234A L235A, a CD40 Fab fused to the N-terminus of the FAP crossFab on the knob chain; also called CD40 × FAP 2 + 1 head-to-tail; 2 + 1 head-to-tail format) heavy 1: not shown heavy 2: EVQLVESGGGLVQPGGSLRLSCAASGYSFTGYYIHWVRQAPGKGLEWVARVIPNAGGTSYNQKFKGRFTLSVDNSKNTAYLQMNSLRAEDTAVYYCAREGIYWWGQGTLVTVSSASTKGPSVFPLAPSSKSTSGGTAALGCLVEDYFPEPVTVSWNSGALTSGVHTFPAVLQSSGLYSLSSVVTVPSSSLGTQTYICNVNHKPSNTKVDEKVEPKSCDKTHTCPPCPAPEAAGGPSVFLFPPKPKDTLMISRTPEVTCVVVDVSHEDPEVKFNWYVDGVEVHNAKTKPREEQYNSTYRVVSVLTVLHQDWLNGKEYKCKVSNKALGAPIEKTISKAKGQPREPQVCTLPPSRDELTKNQVSLSCAVKGFYPSDIAVEWESNGQPENNYKTTPPVLDSDGSFFLVSKLTVDKSRWQQGNVFSCSVMHEALHNRFTQKSLSLSPGK light 1: DIQMTQSPSSLSASVGDRVTITCRSSQSLVHSNGNTFLHWYQQKPGKAPKLLIYTVSNRFSGVPSRFSGSGSGTDFTLTISSLQPEDFATYFCSQTTHVPWTFGQGTKVEIKRTVAAPSVFIFPPSDRKLKSGTASVVCLLNNFYPREAKVQWKVDNALQSGNSQESVTEQDSKDSTYSLSSTLTLSKADYEKHKVYACEVTHQGLSSPVTKSFNRGEC light 2: EVQLLESGGGLVQPGGSLRLSCAASGFTFSSHAMSWVRQAPGKGLEWVSAIWASGEQYYADSVKGRFTISRDNSKNTLYLQMNSLRAEDTAVYYCAKGWLGNFDYWGQGTLVTVSSASVAAPSVFIFPPSDEQLKSGTASVVCLLNNFYPREAKVQWKVDNALQSGNSQESVTEQDSKDSTYSLSSTLTLSKADYEKHKVYACEVTHQGLSSPVTKSFNRGEC |
